Reference: patent US20210246166A1 (Bayer, published 2021)
Bridge positions count the residues as written; N and C are the ends. Square brackets hold non-standard residues; d marks the D form. Ends that are not written are not given here. Pro(trans-4-F) = O=C(O)[C@@H]1C[C@@H](F)CN1; Oic = O=C(O)[C@@H]1C[C@@H]2CCCC[C@@H]2N1; Hyp = O=C(O)[C@@H]1C[C@@H](O)CN1; NMeI = CC[C@H](C)[C@H](NC)C(=O)O; tBuAla = CC(C)(C)C[C@H](N)C(=O)O; aThr = C[C@H](O)[C@H](N)C(=O)O; Chg = N[C@H](C(=O)O)C1CCCCC1; Pen = CC(C)(S)[C@H](N)C(=O)O; αMeP = C[C@@]1(C(=O)O)CCCN1; NMeC = CN[C@@H](CS)C(=O)O; Orn = NCCC[C@H](N)C(=O)O; Abu = CC[C@H](N)C(=O)O; Aib = CC(C)(N)C(=O)O; Sar = CNCC(=O)O

B1: Example 287: ((N-Me)G)-IC+SRSLPPIC+I-((trans-4-Fluoro)P)-D-OH (peptide)
peptide: [Sar]ICSRSLPPICI[Pro(trans-4-F)]D-OH
modifications: disulfide 3-11; N-terminus assumed
SMILES: CC[C@H](C)[C@H](NC(=O)CNC)C(=O)N[C@H]1CSSC[C@@H](C(=O)N[C@H](C(=O)N2C[C@H](F)C[C@H]2C(=O)N[C@@H](CC(=O)O)C(=O)O)[C@@H](C)CC)NC(=O)[C@H]([C@@H](C)CC)NC(=O)[C@@H]2CCCN2C(=O)[C@@H]2CCCN2C(=O)[C@H](CC(C)C)NC(=O)[C@H](CO)NC(=O)[C@H](CCCNC(=N)N)NC(=O)[C@H](CO)NC1=O
B2: Example 282: ((N-Me)G)-IC+SRSLPP-(Chg)-C+IPD-NH2 (peptide)
peptide: [Sar]ICSRSLPP[Chg]CIPD-NH2
modifications: disulfide 3-11; N-terminus assumed
SMILES: CC[C@H](C)[C@H](NC(=O)CNC)C(=O)N[C@H]1CSSC[C@@H](C(=O)N[C@H](C(=O)N2CCC[C@H]2C(=O)N[C@@H](CC(=O)O)C(N)=O)[C@@H](C)CC)NC(=O)[C@H](C2CCCCC2)NC(=O)[C@@H]2CCCN2C(=O)[C@@H]2CCCN2C(=O)[C@H](CC(C)C)NC(=O)[C@H](CO)NC(=O)[C@H](CCCNC(=N)N)NC(=O)[C@H](CO)NC1=O
B3: Example 348: GIC+SRSLPPIC+I-(Hyp)-D-OH (peptide)
peptide: GICSRSLPPICI[Hyp]D-OH
modifications: disulfide 3-11; N-terminus assumed
SMILES: CC[C@H](C)[C@H](NC(=O)CN)C(=O)N[C@H]1CSSC[C@@H](C(=O)N[C@H](C(=O)N2C[C@H](O)C[C@H]2C(=O)N[C@@H](CC(=O)O)C(=O)O)[C@@H](C)CC)NC(=O)[C@H]([C@@H](C)CC)NC(=O)[C@@H]2CCCN2C(=O)[C@@H]2CCCN2C(=O)[C@H](CC(C)C)NC(=O)[C@H](CO)NC(=O)[C@H](CCCNC(=N)N)NC(=O)[C@H](CO)NC1=O
B4: Example 289: ((N-Me)G)-IC+SRSLPP-IC+I-((2-Me)P)-D-OH (peptide)
peptide: [Sar]ICSRSLPPICI[αMeP]D-OH
modifications: disulfide 3-11; N-terminus assumed
SMILES: CC[C@H](C)[C@H](NC(=O)CNC)C(=O)N[C@H]1CSSC[C@@H](C(=O)N[C@H](C(=O)N2CCC[C@@]2(C)C(=O)N[C@@H](CC(=O)O)C(=O)O)[C@@H](C)CC)NC(=O)[C@H]([C@@H](C)CC)NC(=O)[C@@H]2CCCN2C(=O)[C@@H]2CCCN2C(=O)[C@H](CC(C)C)NC(=O)[C@H](CO)NC(=O)[C@H](CCCNC(=N)N)NC(=O)[C@H](CO)NC1=O
B5: Example 367: ((N-Me)G)-IC+SRSLPPIC+I-(Oic)-D-OH (peptide)
peptide: [Sar]ICSRSLPPICI[Oic]D-OH
modifications: disulfide 3-11; N-terminus assumed
SMILES: CC[C@H](C)[C@H](NC(=O)CNC)C(=O)N[C@H]1CSSC[C@@H](C(=O)N[C@H](C(=O)N2[C@H](C(=O)N[C@@H](CC(=O)O)C(=O)O)C[C@@H]3CCCC[C@@H]32)[C@@H](C)CC)NC(=O)[C@H]([C@@H](C)CC)NC(=O)[C@@H]2CCCN2C(=O)[C@@H]2CCCN2C(=O)[C@H](CC(C)C)NC(=O)[C@H](CO)NC(=O)[C@H](CCCNC(=N)N)NC(=O)[C@H](CO)NC1=O
B6: Example 313: ((N-Me)G)-IC+SRSLPPIC+I-(Abu)-D-OH (peptide)
peptide: [Sar]ICSRSLPPICI[Abu]D-OH
modifications: disulfide 3-11; N-terminus assumed
SMILES: CC[C@H](NC(=O)[C@@H](NC(=O)[C@@H]1CSSC[C@H](NC(=O)[C@@H](NC(=O)CNC)[C@@H](C)CC)C(=O)N[C@@H](CO)C(=O)N[C@@H](CCCNC(=N)N)C(=O)N[C@@H](CO)C(=O)N[C@@H](CC(C)C)C(=O)N2CCC[C@H]2C(=O)N2CCC[C@H]2C(=O)N[C@@H]([C@@H](C)CC)C(=O)N1)[C@@H](C)CC)C(=O)N[C@@H](CC(=O)O)C(=O)O
B7: Example 278: AIC+SR-(allo-T)-LPPIC+IPD-NH2 (peptide)
peptide: AICSR[aThr]LPPICIPD-NH2
modifications: disulfide 3-11; N-terminus assumed
SMILES: CC[C@H](C)[C@H](NC(=O)[C@H](C)N)C(=O)N[C@H]1CSSC[C@@H](C(=O)N[C@H](C(=O)N2CCC[C@H]2C(=O)N[C@@H](CC(=O)O)C(N)=O)[C@@H](C)CC)NC(=O)[C@H]([C@@H](C)CC)NC(=O)[C@@H]2CCCN2C(=O)[C@@H]2CCCN2C(=O)[C@H](CC(C)C)NC(=O)[C@H]([C@H](C)O)NC(=O)[C@H](CCCNC(=N)N)NC(=O)[C@H](CO)NC1=O
B8: Example 286: GIC+SRSLPPIC+I-(Aib)-D-OH (peptide)
peptide: GICSRSLPPICI[Aib]D-OH
modifications: disulfide 3-11; N-terminus assumed
SMILES: CC[C@H](C)[C@H](NC(=O)CN)C(=O)N[C@H]1CSSC[C@@H](C(=O)N[C@H](C(=O)NC(C)(C)C(=O)N[C@@H](CC(=O)O)C(=O)O)[C@@H](C)CC)NC(=O)[C@H]([C@@H](C)CC)NC(=O)[C@@H]2CCCN2C(=O)[C@@H]2CCCN2C(=O)[C@H](CC(C)C)NC(=O)[C@H](CO)NC(=O)[C@H](CCCNC(=N)N)NC(=O)[C@H](CO)NC1=O
B9: Example 479: (Orn)-IC+SRS-((tBu)A)-PPI-((N-Me)C)+IPD-OH (peptide)
peptide: [Orn]ICSRS[tBuAla]PPI[NMeC]IPD-OH
modifications: disulfide 3-11; N-terminus assumed
SMILES: CC[C@H](C)[C@H](NC(=O)[C@@H](N)CCCN)C(=O)N[C@H]1CSSC[C@@H](C(=O)N[C@H](C(=O)N2CCC[C@H]2C(=O)N[C@@H](CC(=O)O)C(=O)O)[C@@H](C)CC)N(C)C(=O)[C@H]([C@@H](C)CC)NC(=O)[C@@H]2CCCN2C(=O)[C@@H]2CCCN2C(=O)[C@H](CC(C)(C)C)NC(=O)[C@H](CO)NC(=O)[C@H](CCCNC(=N)N)NC(=O)[C@H](CO)NC1=O
B10: aIC+SRS-((tBu)A)-PPI-(Pen)+IPD-NH2 (peptide)
peptide: [dA]ICSRS[tBuAla]PPI[Pen]IPD-NH2
modifications: disulfide 3-11; N-terminus assumed
SMILES: CC[C@H](C)[C@H](NC(=O)[C@@H](C)N)C(=O)N[C@H]1CSSC(C)(C)[C@@H](C(=O)N[C@H](C(=O)N2CCC[C@H]2C(=O)N[C@@H](CC(=O)O)C(N)=O)[C@@H](C)CC)NC(=O)[C@H]([C@@H](C)CC)NC(=O)[C@@H]2CCCN2C(=O)[C@@H]2CCCN2C(=O)[C@H](CC(C)(C)C)NC(=O)[C@H](CO)NC(=O)[C@H](CCCNC(=N)N)NC(=O)[C@H](CO)NC1=O
B11: (Orn)-IC+SRS-((tBu)A)-PPI-(Pen)+IPD-NH2 (peptide)
peptide: [Orn]ICSRS[tBuAla]PPI[Pen]IPD-NH2
modifications: disulfide 3-11; N-terminus assumed
SMILES: CC[C@H](C)[C@H](NC(=O)[C@@H](N)CCCN)C(=O)N[C@H]1CSSC(C)(C)[C@@H](C(=O)N[C@H](C(=O)N2CCC[C@H]2C(=O)N[C@@H](CC(=O)O)C(N)=O)[C@@H](C)CC)NC(=O)[C@H]([C@@H](C)CC)NC(=O)[C@@H]2CCCN2C(=O)[C@@H]2CCCN2C(=O)[C@H](CC(C)(C)C)NC(=O)[C@H](CO)NC(=O)[C@H](CCCNC(=N)N)NC(=O)[C@H](CO)NC1=O
B12: ((N-Me)G)-IC+SRSLP-(Oic)-I-(Pen)+IPD-OH (peptide)
peptide: [Sar]ICSRSLP[Oic]I[Pen]IPD-OH
modifications: disulfide 3-11; N-terminus assumed
SMILES: CC[C@H](C)[C@H](NC(=O)CNC)C(=O)N[C@H]1CSSC(C)(C)[C@@H](C(=O)N[C@H](C(=O)N2CCC[C@H]2C(=O)N[C@@H](CC(=O)O)C(=O)O)[C@@H](C)CC)NC(=O)[C@H]([C@@H](C)CC)NC(=O)[C@@H]2C[C@@H]3CCCC[C@@H]3N2C(=O)[C@@H]2CCCN2C(=O)[C@H](CC(C)C)NC(=O)[C@H](CO)NC(=O)[C@H](CCCNC(=N)N)NC(=O)[C@H](CO)NC1=O
B13: Ac-G-((N-Me)I)-C+SRSLPPIC+IPD-OH (peptide)
peptide: Ac-G[NMeI]CSRSLPPICIPD-OH
modifications: disulfide 3-11
SMILES: CC[C@H](C)[C@@H]1NC(=O)[C@@H]2CCCN2C(=O)[C@@H]2CCCN2C(=O)[C@H](CC(C)C)NC(=O)[C@H](CO)NC(=O)[C@H](CCCNC(=N)N)NC(=O)[C@H](CO)NC(=O)[C@@H](NC(=O)[C@H]([C@@H](C)CC)N(C)C(=O)CNC(C)=O)CSSC[C@@H](C(=O)N[C@H](C(=O)N2CCC[C@H]2C(=O)N[C@@H](CC(=O)O)C(=O)O)[C@@H](C)CC)NC1=O

target: T1, recombinant rat MASP1 active protease (amino acids 302-704, C-terminal His Tag) (rat, UniProt Q8CHN8 302-704); assay: cell-based or functional assay
T1 sequence: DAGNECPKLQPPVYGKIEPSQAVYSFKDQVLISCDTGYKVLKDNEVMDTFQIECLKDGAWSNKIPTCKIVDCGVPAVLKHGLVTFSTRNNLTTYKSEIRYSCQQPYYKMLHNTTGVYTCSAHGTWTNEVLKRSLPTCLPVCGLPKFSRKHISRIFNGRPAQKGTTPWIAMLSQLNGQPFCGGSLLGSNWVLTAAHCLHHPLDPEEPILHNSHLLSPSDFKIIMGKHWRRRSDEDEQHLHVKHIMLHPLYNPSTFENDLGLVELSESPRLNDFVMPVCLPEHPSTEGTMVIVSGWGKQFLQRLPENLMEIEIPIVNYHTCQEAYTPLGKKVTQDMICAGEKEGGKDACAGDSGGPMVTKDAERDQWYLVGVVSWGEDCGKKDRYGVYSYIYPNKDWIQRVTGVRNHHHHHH

Which “rat MASP1 IC50” value does the source give for B1 here?
The value was 250 nM.

With B2 as the binder, how does the “rat MASP1 IC50” value read?
Its value is 470 nM.

Which “rat MASP1 IC50” value does the source give for B3 here?
The value was 350 nM.

B4 was tested. Which “rat MASP1 IC50” value did it give?
The value was 180 nM.

B5 was tested. Which “rat MASP1 IC50” value did it give?
The value was 120 nM.

B6 was tested. Which “rat MASP1 IC50” value did it give?
Its value is 220 nM.

Which “rat MASP1 IC50” value does the source give for B7 here?
Its value is 83 nM.

Which “rat MASP1 IC50” value does the source give for B8 here?
Its value is 230 nM.

Which “rat MASP1 IC50” value does the source give for B9 here?
The value was 84 nM.

target: T2, recombinant human MASP1 active protease (amino acids 297-699, C-terminal His Tag) (human, UniProt P48740 297-699); assay: cell-based or functional assay
T2 sequence: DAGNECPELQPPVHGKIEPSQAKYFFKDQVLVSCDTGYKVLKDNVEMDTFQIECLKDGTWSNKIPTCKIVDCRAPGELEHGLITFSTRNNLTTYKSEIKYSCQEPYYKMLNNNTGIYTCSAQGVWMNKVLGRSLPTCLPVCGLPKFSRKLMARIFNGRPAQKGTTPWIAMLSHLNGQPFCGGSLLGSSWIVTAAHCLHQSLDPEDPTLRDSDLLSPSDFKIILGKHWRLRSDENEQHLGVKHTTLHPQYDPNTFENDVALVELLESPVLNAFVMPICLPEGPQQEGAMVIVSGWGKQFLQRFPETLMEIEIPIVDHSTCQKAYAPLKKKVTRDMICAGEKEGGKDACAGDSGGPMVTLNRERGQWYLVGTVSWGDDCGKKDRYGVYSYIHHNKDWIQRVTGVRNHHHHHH

B10 was tested. Which “human MASP1 IC50” value did it give?
The value was 2 nM.

How did the “human MASP1 IC50” value turn out when B11 was run?
The value was 2 nM.

Which “human MASP1 IC50” value does the source give for B12 here?
Its value is 2.5 nM.

With AICSRSLP[Oic]I[Pen]IPD-NH2 (disulfide 3-11; also: TFA salt) [AIC+SRSLP-(Oic)-I-(Pen)+IPD-NH2] as the binder, how does the “human MASP1 IC50” value read?
Its value is 2.23 nM.

For AICSRSLP[Oic]I[Pen]IPD-OH (disulfide 3-11) [AIC+SRSLP-(Oic)-I-(Pen)+IPD-OH (salt free form)], which “human MASP1 IC50” value is on record?
The value was 0.96 nM.

B13 was tested. Which “human MASP1 IC50” value did it give?
The value was 2.09 nM.
